# Laboratory results taken from US20240199750A1.
# B1: CD20-T5-NKp46-IL2v3 (protein, part only; not given: anti-CD20 antibody chains, anti-NKp46 domain, part only)
# chain, part: SSSTKKTQLQLEHLLLDLQMILNGINNYKNPKLTAMLAKKFYMPKKATELKHLQCLEEELKPLEEVLNLAQSKNFHLRPRDLISNINVIVLELKGSETTFMCEYADETATIVEFLNRWITFCQSIISTLT
# Key:
# [1] = target: IL-2Rβ (CD122) on NK cells (human) (UniProt P14784); assay: cell-based or functional assay
# [2] = target: high affinity IL-2Rαβγ complex on Treg cells (human) (UniProt P01589); assay: cell-based or functional assay
# Sequence of UniProt P01589 (P01589 22-272, chain 1 of 3): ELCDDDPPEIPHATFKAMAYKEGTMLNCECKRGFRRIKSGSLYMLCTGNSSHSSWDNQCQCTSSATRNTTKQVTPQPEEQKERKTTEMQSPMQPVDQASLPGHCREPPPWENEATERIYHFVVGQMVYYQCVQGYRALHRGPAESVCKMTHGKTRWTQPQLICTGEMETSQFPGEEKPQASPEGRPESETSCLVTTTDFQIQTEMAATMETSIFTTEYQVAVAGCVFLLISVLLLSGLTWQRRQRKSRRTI
# Sequence of UniProt P01589 (P14784 27-551, chain 2 of 3, further chain): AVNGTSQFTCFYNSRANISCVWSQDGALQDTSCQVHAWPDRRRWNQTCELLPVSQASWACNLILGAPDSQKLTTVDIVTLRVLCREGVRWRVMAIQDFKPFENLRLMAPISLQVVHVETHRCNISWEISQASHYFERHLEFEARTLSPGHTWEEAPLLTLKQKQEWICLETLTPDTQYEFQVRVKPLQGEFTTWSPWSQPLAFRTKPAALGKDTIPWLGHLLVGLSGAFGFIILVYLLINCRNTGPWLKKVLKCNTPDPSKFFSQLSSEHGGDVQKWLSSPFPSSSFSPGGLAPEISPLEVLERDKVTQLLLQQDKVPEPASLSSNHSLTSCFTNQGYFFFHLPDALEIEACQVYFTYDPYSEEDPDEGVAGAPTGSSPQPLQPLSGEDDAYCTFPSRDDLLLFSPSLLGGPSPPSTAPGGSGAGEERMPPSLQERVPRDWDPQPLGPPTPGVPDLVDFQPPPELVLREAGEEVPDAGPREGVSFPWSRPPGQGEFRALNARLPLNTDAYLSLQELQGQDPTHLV
# Sequence of UniProt P01589 (P31785 23-369, chain 3 of 3, further chain): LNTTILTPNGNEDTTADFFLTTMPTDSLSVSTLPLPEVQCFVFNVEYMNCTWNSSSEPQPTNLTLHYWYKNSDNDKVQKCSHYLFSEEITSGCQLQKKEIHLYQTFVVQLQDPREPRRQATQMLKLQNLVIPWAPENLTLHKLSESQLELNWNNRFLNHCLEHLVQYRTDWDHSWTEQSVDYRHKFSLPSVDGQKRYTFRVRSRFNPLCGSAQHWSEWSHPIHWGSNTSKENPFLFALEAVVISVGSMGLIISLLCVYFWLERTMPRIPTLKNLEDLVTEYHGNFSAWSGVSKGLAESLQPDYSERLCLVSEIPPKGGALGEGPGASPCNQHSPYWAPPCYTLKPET
# Sequence of UniProt P14784 (P14784 27-551): as the sequence (P14784 27-551, chain 2 of 3, further chain) above
binder,measurement,setting,value
B1,"% pSTAT5, EC50 NK cells",[1],0.01 nM
same,"% pSTAT5, EC50 Tregs",[2],0.7 nM
